In patent US20110243972A1 (Johns Hopkins, published 2011):

Tests used:
[1] = target: T1, HLA-A2 on T2 cells (HLA-A*0201) (human); test: T2 stabilisation assay, flow cytometry with W6/32
T1 construct: Class I molecule on the T2 cell surface, stabilised by peptide; Detected with mAb W6/32; also called T2-A2
From the text: (§1) T2 cells were pulsed with 225 micrograms of peptide per ml overnight at room temperature before analysis by flow cytometry. T2 cells expressing HLA-A2 (A) or HLA-A24 (C) were stained with an unlabeled mouse anti-HLA class I molecule monoclonal antibody W6/32 and a goat-anti-mouse FITC-labeled IgG2a secondary antibody. T2 cells genetically modified to express A3 (B) were stained with an unlabeled mouse anti-human HLA-A3 specific monoclonal antibody GAPA3 and a FITC-labeled IgG2a secondary antibody.
(§2) Materials and Methods. Peptide/MHC binding Assays. T2 cells expressing the HLA molecule of interest were resuspended in AimV serum free media (Gibco, Grand Island, N.Y.) to a concentration of 1×10⁶ cells/ml and pulsed with 3 μg/ml beta-2 microglobulin (β₂-M) (Sigma, St. Louis, Mo.) plus peptide at 0-225 μg/ml of peptide at room temperature overnight. The cells were washed and resuspended at 2×10⁵ cells/ml. The level of stabilized MHC on the cell surface of the T2 and T2-A24 cells were analyzed by direct staining of cell samples with unlabeled anti-class I mAb W6/32 and a FITC-labeled goat-anti-mouse IgG2a secondary antibody.

[2] = target: T2, HLA-A3 on T2-A3 cells (HLA-A*0301) (human); test: T2-A3 stabilisation assay, flow cytometry with GAPA3
T2 construct: Detected with the anti-HLA-A3 mAb GAPA3
From the text: as §1, §2

EIDESLIFY [Mesothelin A1 (309-317) peptide (EIDESLIFY)]
binding result [1]: no binding (tested: 225 micrograms of peptide per ml)
binding result [2]: no binding (tested: 225 micrograms of peptide per ml)
